Our source for the secreted FXa/TF/FVIIa-dependent chromogenic TFPI- activity values is patent publication US5726038.

This test concerns the target FXa/TF/FVIIa.

Substance “TFPI1-161 -117Gln (non-glycosylated variant of human tissue factor pathway inhibitor, first 161 amino acids, Asn117 replaced by Gln)” came in with a secreted FXa/TF/FVIIa-dependent chromogenic TFPI- activity of 1 U/ml·OD.
